Patent US6284871

How the values were obtained:
[1] = target: purified human Factor IXa (human) (UniProt P00740)
[2] = target: purified human Factor IXa (human) (UniProt P00740); experiment: equilibrium binding in solution (method of Friguet): 30 nM Factor IXa with varying peptide, non-bound Factor IXa measured on immobilized peptide
[3] = target: non-activated Factor IX (Homo sapiens (Human)) (UniProt P00740)
[4] = target: purified human Factor IXa (human) (UniProt P00740); remark: listed apart in the source
[5] = target: non-activated Factor IX (Homo sapiens (Human)) (UniProt P00740); experiment: equilibrium binding in solution (method of Friguet): 30 nM Factor IX with varying peptide, non-bound Factor IX measured on immobilized peptide

An Anticoagulant activity in the APTT test (prolongation of the clotting time in seconds) [1] of 8.6 s was found for “complete Factor VIII light chain (residues 1649-2332) (from UniProt P00451)” in this work.

A Kd [2] of 200 µM, a half-maximal inhibition in the APTT test [3] of 0.3 mM and a half-maximal inhibition in the APTT test [4] of 0.3 mM were found for KNFVKPNETKTYFWK [compound … (SEQ ID NO: 3), synthetic peptide of Factor VIII A3-domain residues 1804-1818] in this work. The Kd [5] was 230 µM.
